From patent US20100239597A1 (NORTHWESTERN UNIVERSITY, published 2010)

T1: biotin-Aβ1-20 (UniProt P05067 672-691, biotin (site not stated))
T1 construct: domain: Aβ1-20; Monomeric Aβ fragment used as BIACORE antigen; also called biotinylated-Aβ1-20
T1 peptide (looked up): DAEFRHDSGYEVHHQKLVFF

B1: 4a-C9 Fab (Fab, V domains shown)
VH: QVTLKESGPALVKPTQTLTLTCTLSGFSLSTSGMGVGWIRQPPGKALEWLAHIWWDDDKSYNPSLKSRLTISKDTSKNQVVLTMTNMDPVDTATYYCARRQLGQAGHDAMDYWGQGTTVTVSS
VL: DVVMTQSPLSLPVTPGEPASISCRSSQSILHSNGNTYLEWYLQKPGQSPQLLIYKVSNRFSGVPDRFSGSGSGTDFTLKISRVEAEDVGVYYCLQTTRVPLTFGQGTKLEIKR
B2: 20C2-9A Fab (Fab, V domains shown)
VH: QVTLKESGPALVKPTQTLTLTCTFSGFSLSTSGMGVGWIRQPPGKALEWLAHIWWDDDKSYNPSLKSRLTISKDTSKNQVVLTMTNMDPVDTATYYCARRQLGLRSIDAMDYWGQGTTVTVSS
VL: DVVMTQSPLSLPVTPGEPASISCRSSQSILHSNGNTYLEWYLQKPGQSPQLLIYKVSNRFSGVPDRFSGSGSGTDFTLKISRVEAEDVGVYYCVQTSLVPLTFGQGTKLEIKR
B3: 20C2-1A Fab (Fab, V domains shown)
VH: QVTLKESGPALVKPTQTLTLTCTFSGFSLSTSGMGVGWIRQPPGKALEWLAHIWWDDDKSYNPSLKSRLTISKDTSKNQVVLTMTNMDPVDTATYYCARRQLGLRSIDAMDYWGQGTTVTVSS
VL: DVVMTQSPLSLPVTPGEPASISCRSSQSILHSNGNTYLEWYLQKPGQSPQLLIYKVSNRFSGVPDRFSGSGSGTDFTLKISRVEAEDVGVYYCFQASRVPLTFGQGTKLEIKR
B4: 20C2-8A Fab (Fab, V domains shown)
VH: QVTLKESGPALVKPTQTLTLTCTFSGFSLSTSGMGVGWIRQPPGKALEWLAHIWWDDDKSYNPSLKSRLTISKDTSKNQVVLTMTNMDPVDTATYYCARRQLGLRSIDAMDYWGQGTTVTVSS
VL: DVVMTQSPLSLPVTPGEPASISCRSSQSILHSNGNTYLEWYLQKPGQSPQLLIYKVSNRFSGVPDRFSGSGSGTDFTLKISRVEAEDVGVYYCLQTTRVPLTFGQGTKLEIKR
B5: 4b-D4 Fab (Fab, V domains shown)
VH: QVTLKESGPALVKPTQTLTLTCTLSGFSLSTSGMGVGWIRQPPGKALEWLAHIWWDDDKSYNPSLKSRLTISKDTSKNQVVLTMTNMDPVDTATYYCARRQLGMATPDAMDYWGQGTTVTVSS
VL: DVVMTQSPLSLPVTPGEPASISCRSSQSILHSNGNTYLEWYLQKPGQSPQLLIYKVSNRFSGVPDRFSGSGSGTDFTLKISRVEAEDVGVYYCLQTTRVPLTFGQGTKLEIKR
B6: 20C2-18A Fab (Fab, V domains shown)
VH: QVTLKESGPALVKPTQTLTLTCTFSGFSLSTSGMGVGWIRQPPGKALEWLAHIWWDDDKSYNPSLKSRLTISKDTSKNQVVLTMTNMDPVDTATYYCARRQLGLRSIDAMDYWGQGTTVTVSS
VL: DVVMTQSPLSLPVTPGEPASISCRSSQSILHSNGNTYLEWYLQKPGQSPQLLIYKVSNRFSGVPDRFSGSGSGTDFTLKISRVEAEDVGVYYCMQSSFVPLTFGQGTKLEIKR
B7: 4a-D5 Fab (Fab, V domains shown)
VH: QVTLKESGPALVKPTQTLTLTCTLSGFSLSTSGMGVGWIRQPPGKALEWLAHIWWDDDKSYNPSLKSRLTISKDTSKNQVVLTMTNMDPVDTATYYCARRQLGDNVADAMDYWGQGTTVTVSS
VL: DVVMTQSPLSLPVTPGEPASISCRSSQSILHSNGNTYLEWYLQKPGQSPQLLIYKVSNRFSGVPDRFSGSGSGTDFTLKISRVEAEDVGVYYCLQTTRVPLTFGQGTKLEIKR
B8: 20C2-12A Fab (Fab, V domains shown)
VH: QVTLKESGPALVKPTQTLTLTCTFSGFSLSTSGMGVGWIRQPPGKALEWLAHIWWDDDKSYNPSLKSRLTISKDTSKNQVVLTMTNMDPVDTATYYCARRQLGLRSIDAMDYWGQGTTVTVSS
VL: DVVMTQSPLSLPVTPGEPASISCRSSQSILHSNGNTYLEWYLQKPGQSPQLLIYKVSNRFSGVPDRFSGSGSGTDFTLKISRVEAEDVGVYYCLQSSLVPLTFGQGTKLEIKR
B9: 4b-A12 Fab (Fab, V domains shown)
VH: QVTLKESGPALVKPTQTLTLTCTLSGFSLSTSGMGVGWIRQPPGKALEWLAHIWWDDDKSYNPSLKSRLTISKDTSKNQVVLTMTNMDPVDTATYYCARRQLGPEPQDAMDYWGQGTTVTVSS
VL: DVVMTQSPLSLPVTPGEPASISCRSSQSILHSNGNTYLEWYLQKPGQSPQLLIYKVSNRFSGVPDRFSGSGSGTDFTLKISRVEAEDVGVYYCLQTTRVPLTFGQGTKLEIKR
B10: 4b-B10 Fab (Fab, V domains shown)
VH: QVTLKESGPALVKPTQTLTLTCTLSGFSLSTSGMGVGWIRQPPGKALEWLAHIWWDDDKSYNPSLKSRLTISKDTSKNQVVLTMTNMDPVDTATYYCARRQLGAHWLDAMDYWGQGTTVTVSS
VL: DVVMTQSPLSLPVTPGEPASISCRSSQSILHSNGNTYLEWYLQKPGQSPQLLIYKVSNRFSGVPDRFSGSGSGTDFTLKISRVEAEDVGVYYCLQTTRVPLTFGQGTKLEIKR
B11: 4a-E10 Fab (Fab, V domains shown)
VH: QVTLKESGPALVKPTQTLTLTCTLSGFSLSTSGMGVGWIRQPPGKALEWLAHIWWDDDKSYNPSLKSRLTISKDTSKNQVVLTMTNMDPVDTATYYCARRQLGFQSTDAMDYWGQGTTVTVSS
VL: DVVMTQSPLSLPVTPGEPASISCRSSQSILHSNGNTYLEWYLQKPGQSPQLLIYKVSNRFSGVPDRFSGSGSGTDFTLKISRVEAEDVGVYYCLQTTRVPLTFGQGTKLEIKR
B12: 20C2-7A Fab (Fab, V domains shown)
VH: QVTLKESGPALVKPTQTLTLTCTFSGFSLSTSGMGVGWIRQPPGKALEWLAHIWWDDDKSYNPSLKSRLTISKDTSKNQVVLTMTNMDPVDTATYYCARRQLGLRSIDAMDYWGQGTTVTVSS
VL: DVVMTQSPLSLPVTPGEPASISCRSSQSILHSNGNTYLEWYLQKPGQSPQLLIYKVSNRFSGVPDRFSGSGSGTDFTLKISRVEAEDVGVYYCLNSTTVPLTFGQGTKLEIKR
B13: 20C2-13A Fab (Fab, V domains shown)
VH: QVTLKESGPALVKPTQTLTLTCTFSGFSLSTSGMGVGWIRQPPGKALEWLAHIWWDDDKSYNPSLKSRLTISKDTSKNQVVLTMTNMDPVDTATYYCARRQLGLRSIDAMDYWGQGTTVTVSS
VL: DVVMTQSPLSLPVTPGEPASISCRSSQSILHSNGNTYLEWYLQKPGQSPQLLIYKVSNRFSGVPDRFSGSGSGTDFTLKISRVEAEDVGVYYCLQTSNVPLTFGQGTKLEIKR
B14: 20C2-13A IgG1 (antibody, V domains shown)
VH: QVTLKESGPALVKPTQTLTLTCTFSGFSLSTSGMGVGWIRQPPGKALEWLAHIWWDDDKSYNPSLKSRLTISKDTSKNQVVLTMTNMDPVDTATYYCARRQLGLRSIDAMDYWGQGTTVTVSS
VL: DVVMTQSPLSLPVTPGEPASISCRSSQSILHSNGNTYLEWYLQKPGQSPQLLIYKVSNRFSGVPDRFSGSGSGTDFTLKISRVEAEDVGVYYCLQTSNVPLTFGQGTKLEIK
notes: also called 4p1-20; 4P1-20
B15: 20C2-10A IgG1 (antibody, V domains shown)
VH: QVTLKESGPALVKPTQTLTLTCTFSGFSLSTSGMGVGWIRQPPGKALEWLAHIWWDDDKSYNPSLKSRLTISKDTSKNQVVLTMTNMDPVDTATYYCARRQLGLRSIDAMDYWGQGTTVTVSS
VL: DVVMTQSPLSLPVTPGEPASISCRSSQSILHSNGNTYLEWYLQKPGQSPQLLIYKVSNRFSGVPDRFSGSGSGTDFTLKISRVEAEDVGVYYCFQGSRLPVSFGQGTKLEIK
notes: also called SJ-p3-33
B16: 20C2-20A IgG1 (antibody, V domains shown)
VH: QVTLKESGPALVKPTQTLTLTCTFSGFSLSTSGMGVGWIRQPPGKALEWLAHIWWDDDKSYNPSLKSRLTISKDTSKNQVVLTMTNMDPVDTATYYCARRQLGLRSIDAMDYWGQGTTVTVSS
VL: DVVMTQSPLSLPVTPGEPASISCRSSQSILHSNGNTYLEWYLQKPGQSPQLLIYKVSNRFSGVPDRFSGSGSGTDFTLKISRVEAEDVGVYYCFQGSLFPPVFGQGTKLEIK
notes: also called SJ-p3-15
B17: 20C2-23A IgG1 (antibody, V domains shown)
VH: QVTLKESGPALVKPTQTLTLTCTFSGFSLSTSGMGVGWIRQPPGKALEWLAHIWWDDDKSYNPSLKSRLTISKDTSKNQVVLTMTNMDPVDTATYYCARRQLGLRSIDAMDYWGQGTTVTVSS
VL: DVVMTQSPLSLPVTPGEPASISCRSSQSILHSNGNTYLEWYLQKPGQSPQLLIYKVSNRFSGVPDRFSGSGSGTDFTLKISRVEAEDVGVYYCHQSSKVPLTFGQGTKLEIK
notes: also called 4P1-40
B18: 20C2-12A IgG1 (antibody, V domains shown)
VH: QVTLKESGPALVKPTQTLTLTCTFSGFSLSTSGMGVGWIRQPPGKALEWLAHIWWDDDKSYNPSLKSRLTISKDTSKNQVVLTMTNMDPVDTATYYCARRQLGLRSIDAMDYWGQGTTVTVSS
VL: DVVMTQSPLSLPVTPGEPASISCRSSQSILHSNGNTYLEWYLQKPGQSPQLLIYKVSNRFSGVPDRFSGSGSGTDFTLKISRVEAEDVGVYYCLQSSLVPLTFGQGTKLEIK
notes: also called 4P1-32
B19: 20C2-18A IgG1 (antibody, V domains shown)
VH: QVTLKESGPALVKPTQTLTLTCTFSGFSLSTSGMGVGWIRQPPGKALEWLAHIWWDDDKSYNPSLKSRLTISKDTSKNQVVLTMTNMDPVDTATYYCARRQLGLRSIDAMDYWGQGTTVTVSS
VL: DVVMTQSPLSLPVTPGEPASISCRSSQSILHSNGNTYLEWYLQKPGQSPQLLIYKVSNRFSGVPDRFSGSGSGTDFTLKISRVEAEDVGVYYCMQSSFVPLTFGQGTKLEIK
notes: also called SJ-p1-9M
B20: 20C2-9A IgG1 (antibody, V domains shown)
VH: QVTLKESGPALVKPTQTLTLTCTFSGFSLSTSGMGVGWIRQPPGKALEWLAHIWWDDDKSYNPSLKSRLTISKDTSKNQVVLTMTNMDPVDTATYYCARRQLGLRSIDAMDYWGQGTTVTVSS
VL: DVVMTQSPLSLPVTPGEPASISCRSSQSILHSNGNTYLEWYLQKPGQSPQLLIYKVSNRFSGVPDRFSGSGSGTDFTLKISRVEAEDVGVYYCVQTSLVPLTFGQGTKLEIK
notes: also called SJ-p2-51

What was measured:
[1] = biological target: T2, biotinylated ADDL (bADDL) (UniProt P05067 672-713, N-terminal biotin); experiment: BIACORE, Fab against bADDL
T2 construct: domain: Aβ1-42; Panning and ELISA speak of 10% biotinylated ADDL; also called bADDLs; high molecular weight bADDL

biotin-Aβ1-20 = biological target: T1, biotin-Aβ1-20; experiment: BIACORE, Fab against biotinylated-Aβ1-20
[2] = biological target: T2, biotinylated ADDL (bADDL); experiment: BIACORE, bADDL as antigen; Fab
[3] = biological target: T2, biotinylated ADDL (bADDL); experiment: BIACORE, bADDL as antigen; IgG1#1
[4] = biological target: T2, biotinylated ADDL (bADDL); experiment: BIACORE, bADDL as antigen; IgG1#2

Row | Binder | Kd [1] [nM] | Kd (biotin-Aβ1-20) [nM] | Kd [2] [nM] | Kd [3] [nM] | other results
1 | B1 | 8.43 | 2.46 | – | – | –
2 | B2 | – | – | 40 | – | –
3 | B3 | – | – | 85 | – | –
4 | B4 | – | – | 13 | – | –
5 | B5 | 18.6 | 4.87 | – | – | –
6 | B6 | – | – | 85 | – | –
7 | B7 | 1.17 | 3.91 | – | – | –
8 | B8 | – | – | 238 | – | –
9 | B9 | 154 | 10.1 | – | – | –
10 | B10 | 62.8 | 7.43 | – | – | –
11 | B11 | 18.5 | 3.6 | – | – | –
12 | B12 | – | – | 435 | – | –
13 | B13 | – | – | 567 | – | –
14 | B14 | – | – | – | 0.764 | –
15 | B15 | – | – | – | 7.7 | –
16 | B16 | – | – | – | 6.9 | –
17 | B17 | – | – | – | 0.085 | Kd [4]: 0.066 nM
18 | B18 | – | – | – | 0.015 | –
19 | B19 | – | – | – | 0.149 | –
20 | B20 | – | – | – | – | Kd [4]: 0.002 nM
